Assay results taken from US20170049848A1, “Target for Firmicutes and Related Bacteria: The PRP Protease” (VIRGINIA COMMONWEALTH UNIVERSITY, priority 2014, published 2017).
Primed or numbered codes have the meaning given here. Where no end group is shown, it is not given here. [ ]: non-standard residue; d: D form. Dnp″ = dinitrophenol quencher on C-terminus; 2Abz = Nc1ccccc1C(=O)O

Columns and labels:
[1] = Stability of quenched peptide substrate in solution; assay type: physicochemical; details: monitored in solution over time, without enzyme
Source text: (§1) Development of Prp Assay In order to study Prp enzymology in vitro, an assay was designed using a quenched fluorescent peptide substrate derived from the cleavage motif on L27. The peptide KLNLQFFASKK (GI:15927225; SEQ ID NO:1) was chosen for its content of hydrophilic residues and fluorophore 2-amino benzoic acid (2-abz) was conjugated to the N terminus, with a dinitrophenol (Dnp) quencher conjugated to the C-terminus. The resulting peptide substrate (2abz-KLNLQFFASKK-Dnp; SEQ ID NO:1) was ordered from United Peptide in Herndon, Va. (now United Biosystems). The substrate was initially resuspended to 2 mM with a buffer containing 25 mM Tris pH8 and 300 mM NaCl. Fluorescence was measured using an excitation wavelength of 325 nm and an emission wavelength of 425 nm using a Photon Technology International QuantaMaster steady-state fluorescent spectrometer. Prp was initially purified and analyzed as a His6-SUMO N-terminal fusion protein from plasmid pEW34. His6-SUMO fusions were also made of PrpC34A (pEW39) and PrpC34S (pEW40).
The amino acid sequence of the substrate was selected to maximize its hydrophilic residue content, aiming for the greatest possible peptide solubility. […] The assay allows us to determine Prp kinetics, and the effects of any mutants on the Km or Kcat.

S. aureus strain SA178RI = test: Growth curves of S. aureus strains over-expressing Prp, L27 variants or peptide; assay type: cell-based, Staphylococcus aureus; details: T7 plasmid in SA178RI, induced with IPTG, 16 hours at 32° C.; strain still contains native L27 and Prp; compared with wild-type protein or empty vector
Source text: Bacterial Culture. All S. aureus strains used in this work are derivatives of the phage-cured, restriction-defective strain RN4220 (Kreiswirth, 1983). The S. aureus expression strain SA178RI carries a T7 RNA polymerase expression cassette under lac operator control (D'Elia, 2006). The plasmid used for expression in SA178RI was pG164, an E. coli-S. aureus shuttle vector carrying the T7 late promoter into which a lac operator, a multiple cloning site, an optimized gram-positive ribosome binding site, and a constitutively expressed copy of the lac repressor gene were introduced (D'Elia, 2006). S. aureus strains were grown in Trypticase Soy Broth (TSB) (Remel, Lenexa, Kans.) or Brain Heart Infusion (BHI) (Remel, Lenexa, Kans.) at 32° C.
For growth curve analysis of mutant over-expression strains, overnight cultures were inoculated directly into media containing inducer and appropriate antibiotics (TSB with 2 μg/ml tetracycline, 30 μg/ml chloramphenicol and 1 mM IPTG) and monitored at OD600 for 16 hours in a 96 well plate format Biotek Microplate reader.
Both L27 and Prp are essential in S. aureus. One common approach is to examine the effects of mutations in essential genes is to over-express mutant allele and assess the resulting phenotypes. […]

[2] = test system: S. aureus ribosome assembly (70S ribosomes, 50S subunit); test: Polysome analysis (sucrose gradient ribosomal subunit profiles) of over-expression strains; assay type: cell-based, Staphylococcus aureus; details: overexpression in S. aureus SA178RI, compared with empty vector
Protocol: Polysome analysis. Overnight cultures of strains for polysome analysis were inoculated into a flask of media containing inducer and appropriate antibiotics (TSB with 2 μg/ml Tet, 30 μg/ml Chl and 1 mM IPTG) beginning at a 1:100 dilution and grown until they reached a Klett reading of 90 or for 4 hours. As noted above, S. aureus expressing Prp C34A will not grow above Klett 50 for over 8 hours, so this strain was grown at a double volume compared to the others so that an equivalent number of cells could be harvested. Cell pellets from at least 100 ml of culture were resuspended in buffer PA (20 mM Tris pH 7.8, 100 mM NH4Cl, 10 mM MgCl2, 6 mM beta mercaptoethanol), broken by bead beating and then cleared by centrifugation for 10 minutes at 13000 rpm at 4° C. The clarified cell lysates were applied to the top of 10-40% sucrose gradients in buffer PA. The gradients were centrifuged for 17 hours at 19000 rpm on an SW-28 rotor at 4° C. Gradients were analyzed for absorbance at 254 nm using a Biocomp Piston Gradient Fractionator with a BIORAD Econo UV Monitor with a Full Scale of 1.0. Data were recorded using DataQ DI-158-UP data acquisition software, as has been previously reported (O'Farrell, 2012). Areas under each peak were calculated using the trapezoid method. […]

[3] = molecular target: Staphylococcus aureus L27 F8A-F9A with C-terminal Myc and His6 tags (un-cleavable), Q2FXT0
[4] = molecular target: T1, 2abz-KLNLQFFASKK-Dnp quenched fluorescent peptide substrate
T1 chain: KLNLQFFASKK

[5] = test system: peptide substrate 2abz-KLNLQFFASKK-Dnp (L27 cleavage motif); test: Quenched fluorescent peptide Prp assay; assay type: biochemical, Staphylococcus aureus; details: N-terminal His6-SUMO fusion proteins; excitation 325 nm, emission 425 nm
Source text: as §1, with “His6-SUMO fusions were also made of PrpC34A (pEW39) and PrpC34S (pEW40).” left out
In order to test the predictions that our model makes regarding residues important to substrate binding and catalysis and ultimately to search for inhibitors, it was necessary to design a high throughput-capable continuous fluorescent assay. […] In this type of assay, when the substrate is cleaved the fluorophore is released from its quenching partner and fluorescence readings at the fluorophore emission wavelength increase with time. […]

In the case of “2abz-KLNLQFFASKK-Dnp ([2Abz]KLNLQFFASKK-{Dnp″}) [quenched fluorescent peptide substrate, 2-amino benzoic acid at N terminus, dinitrophenol quencher at C-terminus]”, the “stability of peptide in solution” value [1] is reported as “stable and did not self-cleave or change fluorescence over time”.

In the case of MLKLNLQFF, the “effect on S. aureus growth upon overexpression” value (S. aureus strain SA178RI) is reported as “pronounced lag in the middle of the exponential growth phase” and the “effect on ribosomal subunit profile” value [2] is reported as “no anomalies”.

B1: Staphylococcus aureus Prp (phage-related ribosomal protease), wild type, untagged (protein)
chain: MITVDITVNDEGKVTDVIMDGHADHGEYGHDIVCAGASAVLFGSVNAIIGLTSERPDINYDDNGGHFHIRSVDTNNDEAQLILQTMLVSLQTIEEEYNENIRLNYK
For B1, the “N-terminal cleavage of L27 (Western blot)” value [3] was “this protein with N-terminal residues […] was no longer cleaved by Prp via Western blot”.

B2: His6-SUMO-Prp N-terminal fusion protein (wild type) (protein)
chain: MITVDITVNDEGKVTDVIMDGHADHGEYGHDIVCAGASAVLFGSVNAIIGLTSERPDINYDDNGGHFHIRSVDTNNDEAQLILQTMLVSLQTIEEEYNENIRLNYK
With B2 the “fluorescence increase in the quenched fluorescent peptide assay” value [4] was “fluorescence increase only occurred in the presence of wild type Prp fusion proteins”.

B3: wild-type Prp: S. aureus phage-related ribosomal protease, cysteine protease that cleaves L27 (protein)
chain: MITVDITVNDEGKVTDVIMDGHADHGEYGHDIVCAGASAVLFGSVNAIIGLTSERPDINYDDNGGHFHIRSVDTNNDEAQLILQTMLVSLQTIEEEYNENIRLNYK
With B3 the “effect on ribosomal subunit profile” value [2] was “did not deviate significantly from empty vector” and the “fluorescence increase / catalysis with quenched peptide substrate” value [5] was “fluorescence increase only occurred in the presence of wild type Prp”.
